Assay results: IntAct's records for PubMed 20671708

Target: ago2_human AGO2 (UniProt Q9UKV8)
Sequence (Q9UKV8 whole entry): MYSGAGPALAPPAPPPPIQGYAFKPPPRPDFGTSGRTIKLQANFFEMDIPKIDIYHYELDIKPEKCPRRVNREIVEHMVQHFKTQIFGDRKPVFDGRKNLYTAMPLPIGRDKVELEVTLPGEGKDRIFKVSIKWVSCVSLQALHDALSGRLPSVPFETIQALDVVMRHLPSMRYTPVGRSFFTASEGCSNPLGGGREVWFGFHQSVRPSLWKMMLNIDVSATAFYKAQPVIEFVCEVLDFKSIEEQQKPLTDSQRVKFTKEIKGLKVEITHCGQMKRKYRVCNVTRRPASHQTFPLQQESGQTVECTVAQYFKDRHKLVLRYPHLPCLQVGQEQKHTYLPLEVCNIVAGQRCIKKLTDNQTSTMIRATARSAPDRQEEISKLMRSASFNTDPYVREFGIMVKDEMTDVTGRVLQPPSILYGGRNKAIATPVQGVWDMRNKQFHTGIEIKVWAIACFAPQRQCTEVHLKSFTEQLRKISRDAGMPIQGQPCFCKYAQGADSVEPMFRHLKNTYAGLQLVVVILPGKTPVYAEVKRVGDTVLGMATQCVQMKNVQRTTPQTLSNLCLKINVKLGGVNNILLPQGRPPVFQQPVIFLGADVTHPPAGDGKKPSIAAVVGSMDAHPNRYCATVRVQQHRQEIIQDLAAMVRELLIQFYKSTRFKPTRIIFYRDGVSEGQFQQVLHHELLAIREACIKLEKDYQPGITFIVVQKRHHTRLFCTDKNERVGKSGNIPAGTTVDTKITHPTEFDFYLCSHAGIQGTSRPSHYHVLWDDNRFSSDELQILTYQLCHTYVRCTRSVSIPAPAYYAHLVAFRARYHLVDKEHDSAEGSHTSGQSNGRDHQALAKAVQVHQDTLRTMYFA

effect of a mutation on the interaction	Substance
increasing interaction	Leucine-rich repeat serine/threonine-protein kinase 2 (Homo sapiens), Q5S007 G2019S
increasing interaction	Leucine-rich repeat serine/threonine-protein kinase 2 (Homo sapiens), Q5S007 K1906M;D1994A;D2017A
